Reference: patent US20240254203A1 (ACHELOIS BIOPHARMA, published 2024)

B1: 2M-10B11 (antibody, V domains shown)
VH: EVQLVESGGGLVQPGGSLRLSCAASGFTVSSNYMSWVRQAPGKGLEWVSVIYSGGSTYYADSVKGRFTISRDNSKNTLYLQMNSLRAEDTAVYYCARATWLRGVMDVWGQGTTVTVSS
VL: QSALTQPHSVSESPGKTVTISCTGSSGSIASNYVQWYQQRPGSAPTTVIYEDNQRPSGVPDRFSGSIDSSSNSASLTISGLKTEDEADYYCQSYDSSNHWVFGGGTKLTVL
B2: C021 (antibody, V domains shown)
VH: QVQLQESGPGLVKPSQTLSLTCTVSGGSISSGGYYWSWIRQHPGKGLEWIGYIYYSGSTYYNPSLKSRVTISVDTSKNQFSLKLSSVTAADTAVYYCARVWQYYDSSGSFDYWGQGTLVTVSS
VL: not shown
B3: C018 (antibody, V domains shown)
VH: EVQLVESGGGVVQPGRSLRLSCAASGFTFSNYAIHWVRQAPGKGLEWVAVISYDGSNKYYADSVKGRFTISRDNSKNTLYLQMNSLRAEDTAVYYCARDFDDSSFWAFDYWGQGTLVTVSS
VL: DIQLTQSPSSLSASVGDRVTITCRASQSIRSYLNWYQQKPGKAPKLLIYAASSLQSGVPSRFSGSGSGTDFTLTISSLQPDDFATYYCQQSYSTPPATFGQGTKLEIK
B4: 0304-4A10 (antibody, V domains shown)
VH: EVQLVESGGGLVQPGGSLRLSCAASGFTFSTYAMHWVRQAPGKGLEYVSGISSNGGSTYYANSVKGRFTISRDNSKNTLYIQMGSLRAEDMAVYYCARSSSRGFDYWGQGTLVTVSS
VL: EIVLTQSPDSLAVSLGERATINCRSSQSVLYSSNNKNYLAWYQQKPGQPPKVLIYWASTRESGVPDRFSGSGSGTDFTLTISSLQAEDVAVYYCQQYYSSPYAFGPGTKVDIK
B5: 9A1 (antibody, V domains shown)
VH: EVQLLESGGGVVQPGRSLRLSCVVSGFTFNNYGMHWVRQAPGKGLEWVAVISYEGSVKYYGDHVDGRFTISRDPFKNTLYLHMNNLRPDDTAVYYCAKVSAIFWLGQGLSPIDVWGQGTTVTVSS
VL: DIVMTQSPATLSASPGERVTLSCRASQNIRNNLAWYQQKPGQAPRLLIHGASTRAAGAPARFSGSGSDTQFTLTVSSLQSEDFAVYYCHQYSKWPVTFGGGTKVDIK
B6: 2M-14E5 (antibody, V domains shown)
VH: EVQLVESGGGVVQPGRSLRLSCAASGFTFSTYSMHWVRQAPGKGLEWVAVISYDGSNKYYADSVKGRFTISRDNSKNTLYLQVNSLRAEDTAVYYCARSGGGSYRGPFDYWGQGTLVTVSS
VL: AIRMTQSPSFLSVSVGDRVTITCRASQGISSYLAWYQQKPGKAPKLLIYAASTLQSGVPSRFSGSGSGTEFTLTISSLQPEDFATYYCQQLNSYVTFGGGTKVEIK

Target: T1, SARS CoV-2 spike protein (antigen of the mAb binding affinity values) (SARS CoV-2, UniProt P0DTC2 14-1213)
Test: assay not described; mAb; binding locale Spike RBD

Compared with B1, B2 is 4-fold lower in “mAb Binding Affinity” value: 5 ng/mL for the first, 1.25 ng/mL for the second.

For B3, the “mAb Binding Affinity” value was 1.53 ng/mL.

Target: T1, SARS CoV-2 spike protein (antigen of …)
Test: assay not described; mAb; binding locale Spike S2

Going from B4 to B5, the “mAb Binding Affinity” value rises from 3 ng/mL to 5 ng/mL (1.7-fold).

With B6 the “mAb Binding Affinity” value was 7 ng/mL.
